The source of these data is paper PMC6267984.

For the experiment, the target named is Orai1-CFP (UniProt Q96D31).
Sequence of UniProt Q96D31 (Q96D31 whole entry): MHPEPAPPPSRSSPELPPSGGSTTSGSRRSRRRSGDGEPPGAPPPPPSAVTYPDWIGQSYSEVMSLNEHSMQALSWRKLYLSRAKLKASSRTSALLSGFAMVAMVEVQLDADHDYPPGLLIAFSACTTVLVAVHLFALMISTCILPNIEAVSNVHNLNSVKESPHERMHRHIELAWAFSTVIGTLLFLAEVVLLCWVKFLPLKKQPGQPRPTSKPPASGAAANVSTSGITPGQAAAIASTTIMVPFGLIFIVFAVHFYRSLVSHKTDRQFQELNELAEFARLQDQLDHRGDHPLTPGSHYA

As to STIM1-G379E-ΔK (domain or fragment), the constitutive Ca2+ entry at rest worked out at 3.5 nM.

“STIM1-G379E (from UniProt Q13586 23-685) (natural protein)” came in with a constitutive Ca2+ entry at rest of 6.6 nM.
